Measurements taken from patent US10172951B2, “Dendrimer based nanodevices for therapeutic and imaging purposes” (priority 2009, dated 2019).
Where “and” joins values, the source holds several entries; their conditions need not be identical. Equal values may be shown once.

Key:
[1] = Transmembrane transport and permeability, amnion; format: in vitro ADME, human
Excerpt: (§1) All human fetal membrane specimens were obtained at the time of cesarean section for obstetrical indications. The fetal membrane comprising chorioamniotic membrane (intact membranous tissue containing both amnion and chorion together) (n=7) and amnion (n=7) and chorion (n=7) were separately procured (size 6×9″). Each membrane was cut into 9 pieces for the 9 sets of diffusion chamber. The fresh membranes were collected immediately after the delivery, washed with PBS to remove the blood and stored in PBS until (˜1 h at 4° C.) it was mounted on the diffusion chamber (37±0.5° C.). Excess membranes were trimmed. The diffusion experiments were performed for 48 hours by mounting the membrane in the chamber to study the transport across the membranes. In all the experiments with chorioamniotic membrane the choriodecidua (maternal side) was placed facing the donor chamber and the amnionic epithelium (fetal side) was facing the receptor chamber. The chorion and amnion were mechanically separated by gently pulling the two membranes apart. For the chorion, the side attached to amnion was placed facing the receptor chamber and for the amnion the side attached to the chorion was placed facing the donor chamber in the diffusion apparatus. For histological evaluation, the tissue samples were collected at 0.5, 1, 2, 3 and 4 hours for and were fixed in 10% formalin overnight. Further, some sections were analyzed by hematoxylin and eosin (H & E) staining. The membrane thickness was measured using the Mitutoyo Super Caliper by placing the respective membranes between the two glass slides and subtracting the thickness of the glass slides without the membrane.
(§2) Permeation experiments were carried out using a two-chamber (donor and receptor) side-by-side Permegear diffusion cell with a chamber volume of 3 mL and with a diameter of 13 mm and a diffusional area of 1.32 cm^2. The fetal membranes (chorion and amnion together, amnion and chorion) each (n=9) were mounted between two halves of the donor and receptor cell (9 sets), which were further clamped together and sealed tightly with the rubber packing at the end of each glass chamber. The receptor cell (volume 3 mL) was filled with sterile PBS (pH 7.4). The donor cell (volume 3 mL) was filled with solution of compounds whose permeability was evaluated. […] The system was maintained at 37° C. by using a circulating water bath and a jacket surrounding each cell. The donor and receiving medium was continuously stirred (600 rpm) with a magnetic bar to avoid stagnant aqueous diffusion layer effects. Aliquots (200 μL) were collected from the receptor cell every 30 min till first 6 hours and at predetermined intervals thereafter and replaced with equal volume of PBS to maintain sink conditions throughout the study. […] The concentration of compound in the receptor medium was determined using a Molecular Devices SpectroMax M2, UV visible and Fluorescent plate reader at ex 495/em 521. The cumulative amount of compound transported across the membrane in the receptor cell was determined using a calibration curve (a transport of 50% corresponds equilibrium achieved). All the experiments were conducted in dark room. All experiments were done in triplicate and the results are reported as mean±STDev.
[formula] To determine the permeability coefficient, P, a plot of −V/2A ln (1−2Ct/C0) against t was constructed and linear fitting was performed. The slope of the linear portion of the graph yields a permeability coefficient. The thickness of the chorioamnion, chorion and amnion was 0.22 mm, 0.16 mm and 0.05 mm respectively (n=7), as measured with the help of Mitutoyo Super Caliper. […] The FIGS. 93A-C and FIG. 94 show the plots used for calculation of the permeability and the correlation in all the cases ranged from 0.96 to 0.99.

[2] = Transmembrane transport and permeability, chorioamnion; format: in vitro ADME, human
Excerpt: as §1
Permeation experiments were carried out using a two-chamber (donor and receptor) side-by-side Permegear diffusion cell with a chamber volume of 3 mL and with a diameter of 13 mm and a diffusional area of 1.32 cm^2. The fetal membranes (chorion and amnion together, amnion and chorion) each (n=9) were mounted between two halves of the donor and receptor cell (9 sets), which were further clamped together and sealed tightly with the rubber packing at the end of each glass chamber. […] The donor cell (volume 3 mL) was filled with solution of compounds whose permeability was evaluated. […] The concentration of compound in the receptor medium was determined using a Molecular Devices SpectroMax M2, UV visible and Fluorescent plate reader at ex 495/em 521. The cumulative amount of compound transported across the membrane in the receptor cell was determined using a calibration curve (a transport of 50% corresponds equilibrium achieved). […]
(§3) [formula] […] The thickness of the chorioamnion, chorion and amnion was 0.22 mm, 0.16 mm and 0.05 mm respectively (n=7), as measured with the help of Mitutoyo Super Caliper. […]

[3] = Dynamic light scattering size; format: physicochemical; settings: PBS pH 7.4, 37° C.
Description: Dynamic light scattering (DLS) analyses were performed using a Malvern Instruments Zetasizer Nano ZEN3600 instrument (Westborough, Mass.) with reproducibility being verified by collection and comparison of sequential measurements. G4-PAMAM-O-GABA-NH-FITC and G4-PAMAM-O-GABA-NH-Alexa conjugate samples were prepared using PBS pH=7.4. DLS measurements were performed at a 90° scattering angle at 37° C. Z-average sizes of three sequential measurements were collected and analyzed.

[4] = Stability of fluorophore-dendrimer conjugates in PBS (HPLC); format: physicochemical; settings: PBS (pH 7.4), after 72 hours
Excerpt: The FITC-labeled compound (G4-PAMAM-O-GABA-NH-FITC) was purified by dialysis (membrane cutoff 1000 Da) against DMSO in dark by replacing DMSO, to remove un-reacted compounds. Purity of G4-PAMAM-O-GABA-NH-FITC conjugate was confirmed by HPLC using fluorescent detector (λex=495 nm/λem=521 nm).
G4-PAMAM-O-GABA-NH2 dendrimer was reacted with the Alexa 488 carboxylic acid succinimidyl ester (Scheme-6). The N-succinimidyl activated ester of Alexa 488 couples to the terminal primary amines to yield amide-linked G4-PAMAM-O-GABA-Alexa conjugate. The formation of conjugate was confirmed by HPLC (FIG. 89) using florescent detector (λex=495 nm/λem=521 nm). […] The absence of any other peak in chromatogram after dialysis of product confirms the absence of free alexa. […] The dendrimer alexa conjugate was prepared for enhanced histological visualization of samples as confocal imaging causes quenching and also to match with the intensities of other alexa conjugated secondary antibodies.

[5] = Transmembrane transport and permeability, chorion; format: in vitro ADME, human
Excerpt: as §1, §2, §3

G4-PAMAM-O-GABA-NH-FITC [D-FITC]
Permeability coefficient, Amnion ([1]; 0.6 mg/mL): 1.86×10^−8 cm^2/s | Permeability coefficient, Amnion ([1]; 3 mg/mL): 2.08×10^−7 cm^2/s | transport across amnion ([1]; in 5 hours): ≤ 3% | transport across amnion ([1]; in 20 hours, 0.6 mg/mL): 22% | Permeability coefficient, Chorioamnion ([2]; 0.6 mg/mL): 7.5×10^−8 cm^2/s | Permeability coefficient, Chorioamnion ([2]; 3 mg/mL): 5.8×10^−8 cm^2/s | transport across chorioamnion ([2]; in 5 hours): ≤ 3% | size (DLS) [3]: 5.4 nm | stability of the conjugate [4]: FITC was not released from the conjugate | Permeability coefficient, Chorion ([5]; 0.6 mg/mL): 2.94×10^−8 cm^2/s | Permeability coefficient, Chorion ([5]; 3 mg/mL): 2.94×10^−8 cm^2/s | transport across chorion ([5]; in 5 hours): ≤ 3% | transport across chorion ([5]; in 20 hours, 0.6 mg/mL, listed as G4-PAMAM dendrimer): 10% and ~10.5%
